# Measurements from patent US20040082509A1.
# Biological target: JNKs
# Experiment: cell-based or functional assay
row,Binder,phosphorylation of GST-jun (1-89) by JNKs pulled down from UV-irradiated HeLa or IL-1β treated βTC-3 cell extracts; peptide at 25 µM
1,GRKKRRQRRRPPDTYRPKRPTTLNLFPQVPRSQDT [L-TAT-IB1 peptide],25 µM
2,GRKKRRQRRRPPEEPHKHRPTTLRLTTLGAQDS [L-TAT-IB2 peptide],25 µM
